Assay results as given in paper PMC10119399, “Insights to improve the activity of glycosyl phosphorylases from Ruminococcus albus 8 with cello-oligosaccharides” (Frontiers in Chemistry, 2023).
Values belong to the molecule of their own block, whether it stands above or below them.

What was measured:
RalCDP-CBM37 [1] = test system: T1, RalCDP-CBM37; experiment: glucose release, glucose oxidase-peroxidase, Michaelis-Menten fit; assay type: biochemical, Hominimerdicola alba; conditions: phosphorolysis direction; Pi as co-substrate; 50 mM sodium acetate pH 6.0, 45°C; read-out: K M (mM) (mg/mL)
T1 construct: CBM37 of R. albus 8 Cel5G fused by glycine linker (Gly X9) to C-terminus of full-length RalCDP in one polypeptide; His-tag kept; E. coli BL21 (DE3); homodimer

RalCDP-CBM37 [2] = test system: T1, RalCDP-CBM37; experiment: arsenolysis, glucose release, glucose oxidase-peroxidase, Michaelis-Menten fit; assay type: biochemical, Hominimerdicola alba; conditions: phosphorolysis direction measured as arsenolysis; arsenate as co-substrate; 50 mM sodium acetate pH 6.0, 45°C; read-out: K M (mM) (mg/mL)
[3] = biological target: RalCDP-CBM37, RalCDP fused at its C-terminus to CBM37 of R. albus 8 Cel5G by a glycine linker (Ruminococcus albus 8); experiment: SEC; Superdex 200 10/300 in Buffer G (50 mM HEPES-NaOH pH 8.0, 100 mM NaCl, 0.1 mM EDTA); native mass from a calibration curve of standard proteins
[4] = biological target: Ral∆N63CDP-CBM37, Ral∆N63CDP fused at its C-terminus to CBM37 of R. albus 8 Cel5G by a glycine linker (Ruminococcus albus 8); experiment: as above
[5] = biological target: Ruminococcus albus 8 cellobiose phosphorylase (RalCBP) (Ruminococcus albus 8); experiment: as above
[6] = biological target: Ruminococcus albus 8 cellodextrin phosphorylase (RalCDP) (Ruminococcus albus 8); experiment: as above
purified protein = substrate: O=P(O)(O)O; experiment: purified protein; conditions: phosphorolysis direction, co-substrate cellobiose, 50 mM sodium acetate pH 6.0, 45°C
[7] = substrate: O=P(O)(O)O[C@H]1O[C@H](CO)[C@@H](O)[C@H](O)[C@H]1O; experiment: Pi release, Malachite Green, Michaelis-Menten fit; assay type: biochemical, Hominimerdicola alba; conditions: synthesis direction (donor), co-substrate glucose, 100 mM sodium acetate pH 6.0, 45°C
Text: Pi release, Malachite Green, Michaelis-Menten fit on RalCBP

Km (RalCDP-CBM37 [1]): 11 ± 2 mM
Molecule: OC[C@H]1O[C@@H](O[C@H]2[C@H](O)[C@@H](O)C(O)O[C@@H]2CO)[C@H](O)[C@@H](O)[C@@H]1O (some centres unmarked) [Cellobiose]

Km (RalCDP-CBM37 [2]): 0.14 ± 0.03 mM
Molecule: OC[C@H]1O[C@@H](O[C@H]2[C@H](O)[C@@H](O)[C@H](O[C@H]3[C@H](O)[C@@H](O)[C@H](O[C@H]4[C@H](O)[C@@H](O)[C@H](O[C@H]5[C@H](O)[C@@H](O)C(O)O[C@@H]5CO)O[C@@H]4CO)O[C@@H]3CO)O[C@@H]2CO)[C@H](O)[C@@H](O)[C@@H]1O (some centres unmarked) [Cellopentaose]

Km (RalCDP-CBM37 [2]): 0.24 ± 0.06 mM
Molecule: OC[C@H]1O[C@@H](O[C@H]2[C@H](O)[C@@H](O)[C@H](O[C@H]3[C@H](O)[C@@H](O)[C@H](O[C@H]4[C@H](O)[C@@H](O)C(O)O[C@@H]4CO)O[C@@H]3CO)O[C@@H]2CO)[C@H](O)[C@@H](O)[C@@H]1O (some centres unmarked) [Cellotetraose]

Km (RalCDP-CBM37 [2]): 2.2 ± 0.3 mM
Molecule: OC[C@H]1O[C@@H](O[C@H]2[C@H](O)[C@@H](O)[C@H](O[C@H]3[C@H](O)[C@@H](O)C(O)O[C@@H]3CO)O[C@@H]2CO)[C@H](O)[C@@H](O)[C@@H]1O (some centres unmarked) [Cellotriose]

stoichiometry N [3]: 2
Molecule: RalCDP-CBM37, RalCDP fused at its C-terminus to CBM37 of R. albus 8 Cel5G by a glycine linker (enzyme)

stoichiometry N [4]: 5
Molecule: Ral∆N63CDP-CBM37, Ral∆N63CDP fused at its C-terminus to CBM37 of R. albus 8 Cel5G by a glycine linker (enzyme)

stoichiometry N [5]: 2
Molecule: Ruminococcus albus 8 cellobiose phosphorylase (RalCBP) (enzyme)

stoichiometry N [6]: 2
Molecule: Ruminococcus albus 8 cellodextrin phosphorylase (RalCDP) (enzyme)

B1: RalCBP (Hominimerdicola alba 8) (protein)
chain: MKFGFFDDANKEYVITEPRTPYPWINYLGSQAFFSLISNTAGGYSFYKDARLRRITRYRYNNVPIDMGGRYFYINDNGTVWNPGWSPVKTELDAYTCRHGMGYTIIKGEKNGLEAEVTFFVPNNYNGEVQKVVLTNKSGAEKTFKLFSFAEWCLWDAQDDCTNFQRNFSTGRVEVDGSVIYHKTEYRDRRDHYAFYSVNDSIDGYDTDRDSFIGLYNGFNDPQAVMAGKANDSFADGWSPIASHYKEIKLGAGESKTLIFILGYVEMPVDQKFEADGKTINKVKAKAMMEQFDTPEKVDAGLAELKASWDKLLGILNVDTPDDKVDRMVNIWNQYQCMVTFNLSRSASYFESGIGRGMGFRDSNQDILGFVHQIPDRARERIIDIASTQLPDGGCYHQYQPLTKKGNSDIGGDFSDDPLWMILSVSAYIKETGDWGILDEMVPYDNDESKAQPMLDHLKVSFYHIVNNLGPHGLPLAMRADWNDCINLSCYSDTPGESFQTYTNPKFAAEGGYSKVAESVMVATLFTYTGPNYVAILKHLGKDDEAAAAQAEIDKMKKNVMASAWDGDWFLRAYDSEGKKMGSKECEEGQIFIEPQGFAIMSEIGKEQGADKKTLAAIDERLNTKFGLVLNNPAFTKYYIQYGEISTYPGGYKENAGIFTHNNAWIICAAAYAGQGDQAFKYYSEIAPAFTEETSDIHKTEPYVYGQMIGGKDAGSDIGRPGKNFGQGKNSWLTGTAAWNMVAISQYILGVQPDFDGLKIDPSIPAAWDGFNITRKFRGNTYNIAVKNPDHVCKGIKSVTVDGKKIDGIVMPVFEAGSVHEVEVVMG
notes: full length, His6-tag kept (methods: N-terminus; results: C-terminal), codon-optimized, E. coli BL21 (DE3); homodimer 180 kDa
Km (purified protein): 580 ± 20 µM
kcat (purified protein): 284 s⁻¹
kcat/Km (purified protein): 490000 M⁻¹ s⁻¹
Km [7]: 2000 ± 200 µM
kcat [7]: 178 ± 2 s⁻¹
kcat/Km [7]: 89000 M⁻¹ s⁻¹
